Measurements from paper PMC9352680, “A comprehensive thermodynamic model for RNA binding by the Saccharomyces cerevisiae Pumilio protein PUF4”.

Biological target: T1, PUF4 RNA-binding domain (Saccharomyces cerevisiae, UniProt P25339 537-888)
T1 sequence: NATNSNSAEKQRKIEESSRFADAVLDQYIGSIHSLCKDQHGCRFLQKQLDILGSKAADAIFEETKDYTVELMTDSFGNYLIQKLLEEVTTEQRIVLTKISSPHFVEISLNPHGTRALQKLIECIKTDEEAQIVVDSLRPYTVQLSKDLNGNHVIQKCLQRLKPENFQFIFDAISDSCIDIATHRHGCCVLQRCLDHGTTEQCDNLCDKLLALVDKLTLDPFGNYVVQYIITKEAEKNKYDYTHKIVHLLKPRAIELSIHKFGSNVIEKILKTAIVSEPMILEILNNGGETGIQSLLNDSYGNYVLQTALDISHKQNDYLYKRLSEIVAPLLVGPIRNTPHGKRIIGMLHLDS
Experiment: Mg; RNA-MaP; 20 mM Na-HEPES pH 7.4, 30 mM KOAc, 0.75 mM MgCl2, 0.1% Tween-20, 5% glycerol, 0.1 mg/mL BSA, 2 mM DTT; 25 C; 0.0125-409.6 nM protein
Conditions: tags: N-His6-TEV cleaved; C-SNAP kept, Cy3B-labelled; label: tethered on chip by stalled RNA polymerase

UCUCUUAAUAUAUAUUACCUCUCUU (ssRNA) [Id_ii_S1_P4E.3_K4.2_C4.2_[C-2A]_[T-1A]_H4.2_A4.1_F4.1_T4.2_[G10C]_[T11C]]
Kd: 76.2 nM

UCUCUUCCUAUAUAUUAAGUCUCUU (ssRNA) [Id_ii_S1_P4E.3_K4.2_C4.2_[T-1C]_H4.2_A4.1_F4.1_T4.2_[G10A]_[T11G]]
Kd: 87.6 nM

UCUCUUAUUAUAUAUUAUAUCUCUU (ssRNA) [Id_ii_S1_P4E.3_K4.2_C4.2_[C-2A]_H4.2_A4.1_F4.1_T4.2_[G10T]_[T11A]]
Kd: 26.5 nM

UCUCUUCGUAUAUAUUAGCUCUCUU (ssRNA) [Id_ii_S1_P4E.3_K4.2_C4.2_[T-1G]_H4.2_A4.1_F4.1_T4.2_[T11C]]
Kd: 9.29 nM

UCUCUUCCUAUAUAUUAACUCUCUU (ssRNA) [Id_ii_S1_P4E.3_K4.2_C4.2_[T-1C]_H4.2_A4.1_F4.1_T4.2_[G10A]_[T11C]]
Kd: 29.3 nM

UCUCUUAUUAUAUAUUAUGUCUCUU (ssRNA) [Id_ii_S1_P4E.3_K4.2_C4.2_[C-2A]_H4.2_A4.1_F4.1_T4.2_[G10T]_[T11G]]
Kd: 18.8 nM

UCUCUUAUUAUAUAUUACUUCUCUU (ssRNA) [Id_ii_S1_P4E.3_K4.2_C4.2_[C-2A]_H4.2_A4.1_F4.1_T4.2_[G10C]]
Kd: 20.1 nM

UCUCUUAGUAUAUAUUAUCUCUCUU (ssRNA) [Id_ii_S1_P4E.3_K4.2_C4.2_[C-2A]_[T-1G]_H4.2_A4.1_F4.1_T4.2_[G10T]_[T11C]]
Kd: 43 nM

UCUCUUCAUAUAUAUUAUUUCUCUU (ssRNA) [Id_ii_S1_P4E.3_K4.2_C4.2_[T-1A]_H4.2_A4.1_F4.1_T4.2_[G10T]]
Kd: 21.2 nM

UCUCUUCCUAUAUAUUAUCUCUCUU (ssRNA) [Id_ii_S1_P4E.3_K4.2_C4.2_[T-1C]_H4.2_A4.1_F4.1_T4.2_[G10T]_[T11C]]
Kd: 18.5 nM

UCUCUUACUAUAUAUUAACUCUCUU (ssRNA) [Id_ii_S1_P4E.3_K4.2_C4.2_[C-2A]_[T-1C]_H4.2_A4.1_F4.1_T4.2_[G10A]_[T11C]]
Kd: 33 nM

UCUCUUCGUAUAUAUUAACUCUCUU (ssRNA) [Id_ii_S1_P4E.3_K4.2_C4.2_[T-1G]_H4.2_A4.1_F4.1_T4.2_[G10A]_[T11C]]
Kd: 29.9 nM

UCUCUUCCUAUAUAUUACUUCUCUU (ssRNA) [Id_ii_S1_P4E.3_K4.2_C4.2_[T-1C]_H4.2_A4.1_F4.1_T4.2_[G10C]]
Kd: 20.1 nM

UCUCUUAAUAUAUAUUACGUCUCUU (ssRNA) [Id_ii_S1_P4E.3_K4.2_C4.2_[C-2A]_[T-1A]_H4.2_A4.1_F4.1_T4.2_[G10C]_[T11G]]
Kd: 163 nM

UCUCUUCAUAUAUAUUAAUUCUCUU (ssRNA) [Id_ii_S1_P4E.3_K4.2_C4.2_[T-1A]_H4.2_A4.1_F4.1_T4.2_[G10A]]
Kd: 36.3 nM

UCUCUUCCUAUAUAUUAAUUCUCUU (ssRNA) [Id_ii_S1_P4E.3_K4.2_C4.2_[T-1C]_H4.2_A4.1_F4.1_T4.2_[G10A]]
Kd: 27.1 nM

UCUCUUACUAUAUAUUAUGUCUCUU (ssRNA) [Id_ii_S1_P4E.3_K4.2_C4.2_[C-2A]_[T-1C]_H4.2_A4.1_F4.1_T4.2_[G10T]_[T11G]]
Kd: 22.5 nM

UCUCUUAUUAUAUAUUAAUUCUCUU (ssRNA) [Id_ii_S1_P4E.3_K4.2_C4.2_[C-2A]_H4.2_A4.1_F4.1_T4.2_[G10A]]
Kd: 25.6 nM

UCUCUUCGUAUAUAUUAAGUCUCUU (ssRNA) [Id_ii_S1_P4E.3_K4.2_C4.2_[T-1G]_H4.2_A4.1_F4.1_T4.2_[G10A]_[T11G]]
Kd: 101 nM

UCUCUUCCUAUAUAUUACGUCUCUU (ssRNA) [Id_ii_S1_P4E.3_K4.2_C4.2_[T-1C]_H4.2_A4.1_F4.1_T4.2_[G10C]_[T11G]]
Kd: 32.8 nM

UCUCUUUGUUUCUUAUCUCUU (ssRNA) [Ib_S1_P4E.1_K4.1_C4.1_H4.1_[A4T]_A4.1_[A6C]_F4.1_T4.1]
Kd: 370 nM

UCUCUUAAUAUAUAUUAGUUCUCUU (ssRNA) [Id_ii_S1_P4E.3_K4.2_C4.2_[C-2A]_[T-1A]_H4.2_A4.1_F4.1_T4.2]
Kd: 26.7 nM

UCUCUUCGUAUAUAUUAGUUCUCUU (ssRNA) [Id_ii_S1_P4E.3_K4.2_C4.2_[T-1G]_H4.2_A4.1_F4.1_T4.2]
Kd: 8.31 nM

UCUCUUCCUAUAUAUUAUGUCUCUU (ssRNA) [Id_ii_S1_P4E.3_K4.2_C4.2_[T-1C]_H4.2_A4.1_F4.1_T4.2_[G10T]_[T11G]]
Kd: 21.1 nM

UCUCUUACUAUAUAUUACGUCUCUU (ssRNA) [Id_ii_S1_P4E.3_K4.2_C4.2_[C-2A]_[T-1C]_H4.2_A4.1_F4.1_T4.2_[G10C]_[T11G]]
Kd: 51.9 nM

UCUCUUCAUAUAUAUUACAUCUCUU (ssRNA) [Id_ii_S1_P4E.3_K4.2_C4.2_[T-1A]_H4.2_A4.1_F4.1_T4.2_[G10C]_[T11A]]
Kd: 27.8 nM

UCUCUUCAUAUAUAUUACUUCUCUU (ssRNA) [Id_ii_S1_P4E.3_K4.2_C4.2_[T-1A]_H4.2_A4.1_F4.1_T4.2_[G10C]]
Kd: 21 nM

UCUCUUCAUAUAUAUUACGUCUCUU (ssRNA) [Id_ii_S1_P4E.3_K4.2_C4.2_[T-1A]_H4.2_A4.1_F4.1_T4.2_[G10C]_[T11G]]
Kd: 34.8 nM

UCUCUUAUUAUAUAUUACCUCUCUU (ssRNA) [Id_ii_S1_P4E.3_K4.2_C4.2_[C-2A]_H4.2_A4.1_F4.1_T4.2_[G10C]_[T11C]]
Kd: 39 nM

UCUCUUUGUUUUUUAUCUCUU (ssRNA) [Ib_S1_P4E.1_K4.1_C4.1_H4.1_[A4T]_A4.1_[A6T]_F4.1_T4.1]
Kd: 100 nM

UCUCUUAAUAUAUAUUACAUCUCUU (ssRNA) [Id_ii_S1_P4E.3_K4.2_C4.2_[C-2A]_[T-1A]_H4.2_A4.1_F4.1_T4.2_[G10C]_[T11A]]
Kd: 48.9 nM
